Data published in US10597674B2, “HPPD variants and methods of use” (BASF Agricultural Solutions Seed, US LLC, priority 2015, dated 2020).
Where two headings read alike, the source gives them in different places.

System: HPPD polypeptides (wild-type SEQ ID NO:1 and mutants)
Experimental: For the generation of crude HPPD polypeptide extract in micro titer plates (MTP) for the determination of residual activity in inhibition assays, cells were grown in 40 or 150 μl LB medium containing 1% Glucose (Merck, Darmstadt, Germany) and 100 μg/ml ampicillin in a standard 96 well plate (Thermo Fisher Scientific, Waltham, USA) incubated for about 18 h in a humidity incubator at 37° C.
30 μl of this starter culture were added to 600 μl LB medium containing 100 μg/ml ampicillin and 150 mM Hepes (Merck, Darmstadt, Germany) as inoculum for the expression culture in 96 well plates (2 ml deep wells; HJ Bioanalytik, Erkelenz, Germany) The plates were sealed by an aluminium foil, and cells were incubated for 5 h at 37° C. on a plate shaker at 750 rpm. The expression was induced by addition of IPTG in a final concentration of 1 mM followed by further sealed incubation for about 18 h at 30° C. on a plate shaker at 750 rpm.
Cells were harvested by centrifugation at 4° C., 2500 g for 15 min discarding the supernatant. Cell pellets were stored at −80° C. and lysed in 250 μl 1× BugBuster® (Merck, Darmstadt, Germany) in 140 mM Tris (pH 7.8), with 1:25000 diluted BNase® (Qiagen, Hilden, Germany) by incubation of the resuspended cells for 30 min at 4° C. and 1000 rpm. Lysates were clarified by centrifugation for 15 min at 4° C., 2500 g, and 150 μl supernatant were transferred in standard 96 well plate (Thermo Fisher Scientific, Waltham, USA) for subsequent testing in quadruplets.
The activity of HPPD polypeptides was determined in absence or presence of HPPD inhibitors using the coupled HPPD activity assay (FIG. 1).
For the determination of the residual activity, the apparent kinetic constant (kapp) of the determined substrate conversion was measured as kinetic changes in absorbance at 320 nm in a coupled assay, in that homogentisate (HGA) formed by HPPD from HPP is directly converted into the well absorbing molecule maleylacetoacetate (MAA) by a second enzyme homogentisate dioxygenase (HGD), applied in excess uniformly in all assays (see FIG. 1). The measurements were performed in 384 micro titer plates (Greiner Bio-One GmbH, Frickenhausen, Germany) by plate readers (Tecan infinite M1000 or M1000PRO, Tecan, Männedorf, Switzerland). The kcat/kM ratio of an enzymatic activity is proportional to the apparent kinetic constant kapp and is proportional to kcat/kM*[E] ([E]=enzyme concentration). […] As both kapp measurements in the presence and absence of inhibitor were performed by use of the identical enzyme sample, crude or purified, and thereby at the same enzyme concentration, the enzyme concentration eliminates from the calculation of residual activity and the ratio of both kapp directly indicates the change of kM due to the inhibition.

[1] = in the presence of Cmpd. 1, 15 μM inhibitor, high substrate concentration, kapp normalized to kapp without inhibitor
[2] = in the presence of Cmpd. 1, 15 μM inhibitor, high substrate concentration, total change in signal normalized to no inhibitor
[3] = in the presence of Cmpd. 2, 15 μM inhibitor, high substrate concentration, kapp normalized to kapp without inhibitor
[4] = in the presence of Cmpd. 2, 15 μM inhibitor, high substrate concentration, total change in signal normalized to no inhibitor
[5] = in the presence of diketonitrile (DKN), 60 μM inhibitor, high substrate concentration, kapp normalized to kapp without inhibitor
[6] = in the presence of diketonitrile (DKN), 60 μM inhibitor, high substrate concentration, total change in signal normalized to no inhibitor
[7] = in the presence of mesotrione (MST), 60 μM inhibitor, high substrate concentration, kapp normalized to kapp without inhibitor
[8] = in the presence of mesotrione (MST), 60 μM inhibitor, high substrate concentration, total change in signal normalized to no inhibitor
[9] = kapp in presence of 50 μM Cmpd. 1, normalised to kapp without inhibitor, low substrate concentration
[10] = total change in signal in presence of 50 μM Cmpd. 1, normalised to that without inhibitor, low substrate concentration

Row | Molecule | Residual activity [1] | Residual turnover [2] | Residual activity [3] | Residual turnover [4] | Residual activity [5] | Residual turnover [6] | Residual activity [7] | Residual turnover [8] | Residual activity [9] | Residual turnover [10]
1 | CS(=O)(=O)c1ccc(C(=O)C2C(=O)CCCC2=O)c([N+](=O)[O-])c1 [mesotrione, 2-[4-(methylsulfonyl)-2-nitrobenzoyl]-1,3-cyclohexanedione, reference compound] | 9% | 9% | 16% | 22% | 17% | 17% | 13% | 17% | – | –
2 | 16 (protein, mutant HPPD polypeptide) MADLYENPMGLMGFEFIEFASPTPGTLEPIFEIMGFTKVATHRSKNVHLYRQGEINLILNNEPNSIASYFAAEHGPSVCGMAFRVKDSQKAYNRALELGAQPIHIDTGPMELNLPAIKGIGGAPLYLIDRFGEGSSIYDIDFVYLEGVERNPVGAGLKVIDHLTHNVYRGRMVYWANFYEKLFNFREARYFDIKGEYTGLTSKAMSAPDGMIRIPLNEESSKGAGQIEEFLMQFNGEGIQHVAFLTDDLVKTWDALKKIGMRFMTAPSDSYYEMLEGRLPDHGEPVDQLQARGILLDGSSVEGDKRLLLQIFSETLMGPVFFEFIQRKGDDGFGPDSFKVLFESKERDQVRRGVLTAD | 45% | 69% | 94% | 94% | n.i. (no inhibition was observed under the given conditions) | n.i. | 88% | 92% | – | –
3 | 8 (protein, mutant HPPD polypeptide) MADLYENPMGLMGFEFIEFASPTPGTLEPIFEIMGFTKVATHRSKNVHLYRQGEINLILNNEPNSIASYFAAEHGPSVCGMAFRVKDSQKAYNRALELGAQPIHIDTGPMELNLPAIKGIGGAPLYLIDRFGEGSSIYDIDFVYLEGVERNPVGAGLKVIDHLTHNVYRGRMVYWANFYEKLFNFREARYFDIKGEYTGLTSKAMSAPDGMIRIPLNEESSKGAGQIEEFLMQFNGEGIQHVAFLTDDLVKTWDALKKIGMRFMTAPPDTYYEMLEGRLPDHGEPVDQLQARGILLDGSSVEGDKRLLLQIFSETLMGPVFFEFIQRKGDDGFGPDSFKVLFESIERDQVRRGVLTAD | 21% | 44% | 67% | 74% | 91% | 95% | 70% | 85% | – | –
4 | 36 (protein, mutant HPPD polypeptide) MADLYENPMGLMGFEFIEFASPTPGTLEPIFEIMGFTKVATHRSKNVHLYRQGEINLILNNEPNSIASYFAAEHGPSVCGMAFRVKDSQKAYNRALELGAQPIHIDTGPMELNLPAIKGIGGAPLYLIDRFGEGSSIYDIDFVYLEGVERNPVGAGLKVIDHLTHNVYRGRMVYWANFYEKLFNFREARYFDIKGEYTGLTSKAMSAPDGMIRIPLNEESSKGAGQIEEFLMQFNGEGIQHVAFLTDDLVKTWDALKKIGMRFRTAPGDEYYEMLEGRLPDHGEPVDQLQARGILLDGSSVEGDKRLLLQIFSETLMGPVFFEFIQRKGHDGFGPDSFKVLFESMERDQVRRGVLTAD | – | – | – | – | – | – | – | – | 67% | 85%
5 | 60 (protein, mutant HPPD polypeptide) MADLYENPMGLMGFEFIEFASPTPGTLEPIFEIMGFTKVATHRSKNVHLYRQGEINLILNNEPNSIASYFAAEHGPSVCGMAFRVKDSQKAYNRALELGAQPIHIDTGPMELNLPAIKGIGGAPLYLIDRFGEGSSIYDIDFVYLEGVERNPVGAGLKVIDHLTHNVYRGRMVYWANFYEKLFNFREARYFDIKGEYTGLTSKAMSAPDGMIRIPLNEESSKGAGQIEEFLMQFNGEGIQHVAFLTDDLVKTWDALKKIGMRFRTAPGDEYYEMLEGRLPDHGEPVDQLQARGILLDGSSVEGDKRLLLQIFSETLMGPVFFEFIQRKGHDGFGPDSFKVLFEQVERDQVRRGVLTAD | – | – | – | – | – | – | – | – | 64% | 84%
6 | 18 (protein, mutant HPPD polypeptide) MADLYENPMGLMGFEFIEFASPTPGTLEPIFEIMGFTKVATHRSKNVHLYRQGEINLILNNEPNSIASYFAAEHGPSVCGMAFRVKDSQKAYNRALELGAQPIHIDTGPMELNLPAIKGIGGAPLYLIDRFGEGSSIYDIDFVYLEGVERNPVGAGLKVIDHLTHNVYRGRMVYWANFYEKLFNFREARYFDIKGEYTGLTSKAMSAPDGMIRIPLNEESSKGAGQIEEFLMQFNGEGIQHVAFLTDDLVKTWDALKKIGMRFRTAPPDTYYEMLEGRLPDHGEPVDQLQARGILLDGSSVEGDKRLLLQIFSETLMGPVFFEFIQRKGHDGFGPDSFKVLFESIERDQVRRGVLTAD | 67% | 79% | n.i. (no inhibition was observed under the given conditions) | n.i. | n.i. (no inhibition was observed under the given conditions) | n.i. | – | – | – | –
7 | 33 (protein, mutant HPPD polypeptide) MADLYENPMGLMGFEFIEFASPTPGTLEPIFEIMGFTKVATHRSKNVHLYRQGEINLILNNEPNSIASYFAAEHGPSVCGMAFRVKDSQKAYNRALELGAQPIHIDTGPMELNLPAIKGIGGAPLYLIDRFGEGSSIYDIDFVYLEGVERNPVGAGLKVIDHLTHNVYRGRMVYWANFYEKLFNFREARYFDIKGEYTGLTSKAMSAPDGMIRIPLNEESSKGAGQIEEFLMQFNGEGIQHVAFLTDDLVKTWDALKKIGMRFMTAPGDEYYEMLEGRLPDHGEPVDQLQARGILLDGSSVEGDKRLLLQIFSETLMGPVFFEFIQRKGDDGFGPDSFKRLFESVERDQVRRGVLTAD | – | – | – | – | – | – | – | – | 40% | 65%
8 | 31 (protein, mutant HPPD polypeptide) MADLYENPMGLMGFEFIEFASPTPGTLEPIFEIMGFTKVATHRSKNVHLYRQGEINLILNNEPNSIASYFAAEHGPSVCGMAFRVKDSQKAYNRALELGAQPIHIDTGPMELNLPAIKGIGGAPLYLIDRFGEGSSIYDIDFVYLEGVERNPVGAGLKVIDHLTHNVYRGRMVYWANFYEKLFNFREARYFDIKGEYTGLTSKAMSAPDGMIRIPLNEESSKGAGQIEEFLMQFNGEGIQHVAFLTDDLVKTWDALKKIGMRFMTAPGDEYYEMLEGRLPDHGEPVDQLQARGILLDGSSVEGDKRLLLQIFSETLMGPVFFEFIQRKGDDGFGPHSFKVLFESVERDQVRRGVLTAD | 40% | 67% | 95% | n.i. | n.i. (no inhibition was observed under the given conditions) | n.i. | 83% | n.i. | 50% | 81%
9 | 17 (protein, mutant HPPD polypeptide) MADLYENPMGLMGFEFIEFASPTPGTLEPIFEIMGFTKVATHRSKNVHLYRQGEINLILNNEPNSIASYFAAEHGPSVCGMAFRVKDSQKAYNRALELGAQPIHIDTGPMELNLPAIKGIGGAPLYLIDRFGEGSSIYDIDFVYLEGVERNPVGAGLKVIDHLTHNVYRGRMVYWANFYEKLFNFREARYFDIKGEYTGLTSKAMSAPDGMIRIPLNEESSKGAGQIEEFLMQFNGEGIQHVAFLTDDLVKTWDALKKIGMRFMTAPGDEYYEMLEGRLPDHGEPVDQLQARGILLDGSSVEGDKRLLLQIFSETLMGPVFFEFIQRKGDDGFGPDSFKVLFESVERDQVRRGVLTAD | 43% | 68% | 90% | 90% | n.i. (no inhibition was observed under the given conditions) | 95% | 85% | 90% | 29% | 54%
